Results: patent publication US20240059799A1 (Pfizer, published 2024)
Changes are numbered by the printed parent chain.

B1: TL1A-0002 (antibody, human IgG1, kappa, V domains shown)
VH: QVQLVQSGAEVKKPGASVKVSCKASGYDFTYYGISWVRQAPGQGLEWMGWISTYNGNTHYARMLQGRVTMTTDTSTRTAYMELRSLRSDDTAVYYCARENYYGSGAYRGGMDVWGQGTTVTVSS
VL: EIVLTQSPATLSLSPGERATLSCRASQSVSSYLAWYQQKPGQAPRLLIYDASNRATGIPARFSGSGSGTDFTLTISSLEPEDFAVYYCQQRSNWPWTFGQGTKVEIKR
notes: human IgG1 effector-function-minimized / human kappa; also called parental TL1A-0002 antibody
B2: TL1A-0252 (antibody, V domains shown)
VH: B1 VH with G56T, R62P, M63S, R77S, N100S, Y107F
VL: DIQMTQSPSSLSASVGDRVTITCRASQSVSSYLAWYQQKPGKAPKLLIYDASNRATGVPSRFSGSGSGTDFTLTISSLQPEDFATYYCQQRSNWPWTFGQGTKVEIKR
notes: IgG1 effector-minimized/kappa
B3: TL1A-0269 (antibody, V domains shown)
VH: B1 VH with F29Y, N55G, R62P, M63S, R77S, N100S, Y107H
VL: B2 VL
notes: IgG1 effector-minimized/kappa
B4: TL1A-0253 (antibody, V domains shown)
VH: B1 VH with G56T, R62P, M63S, R77S, N100S, Y107H
VL: B2 VL
notes: IgG1 effector-minimized/kappa
B5: TL1A-0249 (antibody, V domains shown)
VH: B1 VH with G56T, N57G, R62Q, M63K, R77S, N100S, Y107H
VL: B2 VL
notes: IgG1 effector-minimized/kappa
B6: TL1A-0243 (antibody, V domains shown)
VH: B1 VH with G56D, R62P, M63S, R77S, N100S, Y107H
VL: B2 VL
notes: IgG1 effector-minimized/kappa
B7: TL1A-0267 (antibody, human IgG1, kappa, V domains shown)
VH: B1 VH with F29Y, G56T, R62P, M63S, R77S, N100S, Y107H
VL: B2 VL
notes: human IgG1 effector-function-minimized / human kappa
B8: TL1A-0270 (antibody, human IgG1, kappa, V domains shown)
VH: B1 VH with T30S, G56D, R62P, M63S, R77S, N100S, Y107F
VL: B2 VL
notes: as for B7
B9: TL1A-0271 (antibody, human IgG1, kappa, V domains shown)
VH: B1 VH with T30S, G56D, R62P, M63S, R77S, N100S, Y107H
VL: B2 VL
notes: as for B7
B10: TL1A-0254 (antibody, V domains shown)
VH: B1 VH with N55G, R62P, M63S, R77S, N100S, Y107F
VL: B2 VL
notes: IgG1 effector-minimized/kappa
B11: TL1A-0244 (antibody, V domains shown)
VH: B1 VH with G56D, R62Q, M63K, R77S, N100S, Y107F
VL: B2 VL
notes: IgG1 effector-minimized/kappa
B12: TL1A-0272 (antibody, human IgG1, kappa, V domains shown)
VH: B1 VH with T30S, G56D, R62Q, M63K, R77S, N100S, Y107F
VL: B2 VL
notes: as for B7
B13: TL1A-0256 (antibody, human IgG1, kappa, V domains shown)
VH: B1 VH with F29Y, G56D, R62P, M63S, R77S, N100S, Y107F
VL: B2 VL
notes: as for B7
B14: TL1A-0245 (antibody, V domains shown)
VH: B1 VH with G56D, R62Q, M63K, R77S, N100S, Y107H
VL: B2 VL
notes: IgG1 effector-minimized/kappa
B15: TL1A-0246 (antibody, V domains shown)
VH: B1 VH with G56T, N57G, R62P, M63S, R77S, N100S, Y107F
VL: B2 VL
notes: IgG1 effector-minimized/kappa
B16: TL1A-0261 (antibody, human IgG1, kappa, V domains shown)
VH: B1 VH with F29Y, G56T, N57G, R62P, M63S, R77S, N100S, Y107H
VL: B2 VL
notes: as for B7
B17: TL1A-0242 (antibody, V domains shown)
VH: B1 VH with G56D, R62P, M63S, R77S, N100S, Y107F
VL: B2 VL
notes: IgG1 effector-minimized/kappa
B18: TL1A-0259 (antibody, V domains shown)
VH: B1 VH with F29Y, G56D, R62Q, M63K, R77S, N100S, Y107H
VL: B2 VL
notes: IgG1 effector-minimized/kappa
B19: TL1A-0260 (antibody, human IgG1, kappa, V domains shown)
VH: B1 VH with F29Y, G56T, N57G, R62P, M63S, R77S, N100S, Y107F
VL: B2 VL
notes: as for B7
B20: TL1A-0264 (antibody, human IgG1, kappa, V domains shown)
VH: B1 VH with F29Y, G56T, N57V, R62P, M63S, R77S, N100S, Y107F
VL: B2 VL
notes: as for B7
B21: TL1A-0257 (antibody, human IgG1, kappa, V domains shown)
VH: B1 VH with F29Y, G56D, R62P, M63S, R77S, N100S, Y107H
VL: B2 VL
notes: as for B7
B22: TL1A-0189 (antibody, human IgG1, kappa, V domains shown)
VH: B1 VH with R77S
VL: B2 VL
notes: IgG1 effector-minimized/kappa
B23: TL1A-0258 (antibody, human IgG1, kappa, V domains shown)
VH: B1 VH with F29Y, G56D, R62Q, M63K, R77S, N100S, Y107F
VL: B2 VL
notes: as for B7
B24: TL1A-0274 (antibody, human IgG1, kappa, V domains shown)
VH: B1 VH with T30S, G56T, N57G, R62P, M63S, R77S, N100S, Y107F
VL: B2 VL
notes: as for B7
B25: TL1A-0263 (antibody, human IgG1, kappa, V domains shown)
VH: B1 VH with F29Y, G56T, N57G, R62Q, M63K, R77S, N100S, Y107H
VL: B2 VL
notes: as for B7
B26: TL1A-0247 (antibody, V domains shown)
VH: B1 VH with G56T, N57G, R62P, M63S, R77S, N100S, Y107H
VL: B2 VL
notes: IgG1 effector-minimized/kappa
B27: TL1A-0265 (antibody, human IgG1, kappa, V domains shown)
VH: B1 VH with F29Y, G56T, N57V, R62P, M63S, R77S, N100S, Y107H
VL: B2 VL
notes: as for B7
B28: TL1A-0273 (antibody, human IgG1, kappa, V domains shown)
VH: B1 VH with T30S, G56D, R62Q, M63K, R77S, N100S, Y107H
VL: B2 VL
notes: as for B7
B29: TL1A-0255 (antibody, V domains shown)
VH: B1 VH with N55G, R62P, M63S, R77S, N100S, Y107H
VL: B2 VL
notes: IgG1 effector-minimized/kappa
B30: TL1A-0275 (antibody, human IgG1, kappa, V domains shown)
VH: B1 VH with T30S, G56T, N57G, R62P, M63S, R77S, N100S, Y107H
VL: B2 VL
notes: as for B7
B31: TL1A-0251 (antibody, V domains shown)
VH: B1 VH with G56T, N57V, R62P, M63S, R77S, N100S, Y107H
VL: B2 VL
notes: IgG1 effector-minimized/kappa
B32: TL1A-0248 (antibody, V domains shown)
VH: B1 VH with G56T, N57G, R62Q, M63K, R77S, N100S, Y107F
VL: B2 VL
notes: IgG1 effector-minimized/kappa
B33: TL1A-0268 (antibody, V domains shown)
VH: B1 VH with F29Y, N55G, R62P, M63S, R77S, N100S, Y107F
VL: B2 VL
notes: IgG1 effector-minimized/kappa
B34: TL1A-0042 (antibody, human IgG1, kappa, V domains shown)
VH: B1 VH
VL: B2 VL
notes: TL1A-0002 heavy chain with light chain CDRs grafted onto IGKV1-39*01; human IgG1 effector-function-minimized / human kappa
B35: TL1A-0262 (antibody, human IgG1, kappa, V domains shown)
VH: B1 VH with F29Y, G56T, N57G, R62Q, M63K, R77S, N100S, Y107F
VL: B2 VL
notes: as for B7
B36: TL1A-0266 (antibody, human IgG1, kappa, V domains shown)
VH: B1 VH with F29Y, G56T, R62P, M63S, R77S, N100S, Y107F
VL: B2 VL
notes: as for B7

Molecular target: T1, recombinant human TL1A (human, UniProt O95150 71-251)
T1 construct: The ELISA method says only 'recombinant TL1A' coated on plates; homotrimeric cytokine; also called TNFSF15; recombinant TL1A
T1 chain: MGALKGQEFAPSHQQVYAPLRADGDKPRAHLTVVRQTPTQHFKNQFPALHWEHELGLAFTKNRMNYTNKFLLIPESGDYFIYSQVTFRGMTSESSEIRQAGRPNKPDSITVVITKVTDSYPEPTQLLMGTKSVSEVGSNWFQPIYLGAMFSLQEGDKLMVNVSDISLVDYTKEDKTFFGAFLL
Experiment: competition ELISA on coated recombinant TL1A; competitor biotinylated TL1A-0002
Procedure: For this competition ELISA assay procedure, 96-well high binding plates (Corning, product number 3590) were coated with 1 μg/mL recombinant TL1A in 100 μL/well in Phospate Buffered Saline (PBS) overnight at 4° C. Plates were then blocked in PBS+0.02% casein solution and washed with PBS+0.05% Tween-20 following standard ELISA protocol. […] Plates were washed with PBS+0.05% Tween-20 following standard ELISA protocol, and Streptavidin-HRP (Southern Biotech, product number 7100-05) diluted to 1:10,000 in assay buffer was added to plates and incubated for 25-30 minutes at room temperature. Next, the plates were washed with PBS+0.05% Tween-20 following standard ELISA protocol, and then TMB substrate (BioFX Laboratories, catalog number TMBW-0100-01) was added to plates. Reactions were stopped after approximately 5 minutes by adding 0.18 M ortho-phosphoric acid to each well and absorbance was read at 450 nm.
For B1, the “Bioactivity relative to TL1A-0002” value was 1 fold and the IC50 was 5 nM.
B2 was tested, and the “Bioactivity relative to TL1A-0002” value was 2.7 fold and the IC50 was 13.5 nM.
With B3 the “Bioactivity relative to TL1A-0002” value was 7.5 fold and the IC50 was 37.7 nM.
In the case of B4, the “Bioactivity relative to TL1A-0002” value is reported as 2.7 fold and the IC50 is reported as 13.4 nM.
B5 was tested, and the “Bioactivity relative to TL1A-0002” value was 3.1 fold and the IC50 was 15.7 nM.
With B6 the “Bioactivity relative to TL1A-0002” value was 2.9 fold and the IC50 was 14.5 nM.
With B7 the “Bioactivity relative to TL1A-0002” value was 1.3 fold and the IC50 was 6.8 nM.
For B8, the “Bioactivity relative to TL1A-0002” value was 2.3 fold and the IC50 was 11.5 nM.
In the case of B9, the “Bioactivity relative to TL1A-0002” value is reported as 2.1 fold and the IC50 is reported as 10.6 nM.
With B10 the “Bioactivity relative to TL1A-0002” value was 9.2 fold and the IC50 was 46.3 nM.
In the case of B11, the “Bioactivity relative to TL1A-0002” value is reported as 3.5 fold and the IC50 is reported as 17.6 nM.
With B12 the “Bioactivity relative to TL1A-0002” value was 2.3 fold and the IC50 was 11.6 nM.
With B13 the “Bioactivity relative to TL1A-0002” value was 2.3 fold and the IC50 was 11.6 nM.
B14 was tested, and the “Bioactivity relative to TL1A-0002” value was 3.2 fold and the IC50 was 16.2 nM.
With B15 the “Bioactivity relative to TL1A-0002” value was 2.6 fold and the IC50 was 13.3 nM.
For B16, the “Bioactivity relative to TL1A-0002” value was 1.1 fold and the IC50 was 5.6 nM.
For B17, the “Bioactivity relative to TL1A-0002” value was 3.2 fold and the IC50 was 16.2 nM.
B18 was tested, and the “Bioactivity relative to TL1A-0002” value was 3.7 fold and the IC50 was 18.4 nM.
With B19 the “Bioactivity relative to TL1A-0002” value was 1.3 fold and the IC50 was 6.8 nM.
For B20, the “Bioactivity relative to TL1A-0002” value was 3.1 fold and the IC50 was 15.8 nM.
With B21 the “Bioactivity relative to TL1A-0002” value was 1.9 fold and the IC50 was 9.5 nM.
For B22, the “Bioactivity relative to TL1A-0002” value was 0.8 fold and the IC50 was 3.8 nM.
B23 was tested, and the “Bioactivity relative to TL1A-0002” value was 2.2 fold and the IC50 was 10.9 nM.
For B24, the “Bioactivity relative to TL1A-0002” value was 2 fold and the IC50 was 10.1 nM.
B25 was tested, and the “Bioactivity relative to TL1A-0002” value was 1.2 fold and the IC50 was 6.2 nM.
With B26 the “Bioactivity relative to TL1A-0002” value was 2.4 fold and the IC50 was 12.2 nM.
B27 was tested, and the “Bioactivity relative to TL1A-0002” value was 1.7 fold and the IC50 was 8.7 nM.
For B28, the “Bioactivity relative to TL1A-0002” value was 2.2 fold and the IC50 was 10.9 nM.
B29 was tested, and the “Bioactivity relative to TL1A-0002” value was 7.6 fold and the IC50 was 38.4 nM.
For B30, the “Bioactivity relative to TL1A-0002” value was 1.8 fold and the IC50 was 9 nM.
For B31, the “Bioactivity relative to TL1A-0002” value was 3.2 fold and the IC50 was 16.2 nM.
For B32, the “Bioactivity relative to TL1A-0002” value was 3.2 fold and the IC50 was 16 nM.
In the case of B33, the “Bioactivity relative to TL1A-0002” value is reported as 9.6 fold and the IC50 is reported as 48.2 nM.
In the case of B34, the “Bioactivity relative to TL1A-0002” value is reported as 0.8 fold and the IC50 is reported as 4.2 nM.
B35 was tested, and the “Bioactivity relative to TL1A-0002” value was 1.4 fold and the IC50 was 7.3 nM.
With B36 the “Bioactivity relative to TL1A-0002” value was 1.3 fold and the IC50 was 6.6 nM.
